± gives the standard error. For some of these results: This sample holds only a part of the variants without activity.
B1: glmS ribozyme (parent)
chain: AUAAAAGCGCCAGAACUACAGAAAUGUAGUUGACGAGGAGGAGGUUUAUCGAAUUUUCGGCGGAUGCCUCCAAA

Experiments:
Conditions in all cases: with glucosamine-6-phosphate
glucosamine-6-phosphate [1] = variants of: B1; test: kcat; higher = faster cleavage; RNA array
How it was run: (§1)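 In situ transcription by E. coli RNA polymerase produced barcoded ribozyme variants on sequenced MiSeq chips, and a hybridised Cy3 probe tracked them at 37 °C. Glucosamine-6-phosphate was flowed in at 40 μM to 10 mM in HEPES/KCl/Mg(OAc)2 buffer. kcat and KM were taken from weighted Michaelis–Menten fits of kobs values from exponential decay fits.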

glucosamine-6-phosphate [2] = variants of: B1; test: self-cleavage kobs at 160 uM GlcN6P; higher = faster cleavage; RNA array
How it was run: as §1

glucosamine-6-phosphate [3] = variants of: B1; test: KM; higher = weaker cofactor use; RNA array
How it was run: as §1

glucosamine-6-phosphate [4] = variants of: B1; test: self-cleavage kobs at 640 uM GlcN6P; higher = faster cleavage; RNA array
How it was run: as §1

glucosamine-6-phosphate [5] = variants of: B1; test: self-cleavage kobs at 2500 uM GlcN6P; higher = faster cleavage; RNA array
How it was run: as §1

glucosamine-6-phosphate [6] = variants of: B1; test: self-cleavage kobs at 10000 uM GlcN6P; higher = faster cleavage; RNA array
How it was run: as §1

glucosamine-6-phosphate [7] = variants of: B1; test: self-cleavage kobs at 40 uM GlcN6P; higher = faster cleavage; RNA array
How it was run: as §1

Variant | kcat (glucosamine-6-phosphate [1]) [s⁻¹] | self-cleavage kobs at 160 uM GlcN6P (glucosamine-6-phosphate [2]) [s⁻¹] | KM (glucosamine-6-phosphate [3]) [µM] | self-cleavage kobs at 640 uM GlcN6P (glucosamine-6-phosphate [4]) [s⁻¹] | self-cleavage kobs at 2500 uM GlcN6P (glucosamine-6-phosphate [5]) [s⁻¹] | self-cleavage kobs at 10000 uM GlcN6P (glucosamine-6-phosphate [6]) [s⁻¹] | self-cleavage kobs at 40 uM GlcN6P (glucosamine-6-phosphate [7]) [s⁻¹]
A39U C50A | 1.72e-05 ± 1.5e-06 | < 1e-05 | – | – | – | – | –
U30A G66U | 0.000236 ± 1.9e-05 | – | 1720 ± 340 | 5.93e-05 ± 7.9e-06 | 0.000159 ± 1.6e-05 | 0.000195 ± 1.5e-05 | –
C16G A33G C71U | 1.51e-05 ± 7.7e-07 | – | 137 ± 30 | – | – | < 1e-05 | –
C16U U45C | 0.00254 ± 0.00049 | 0.000307 ± 0.00014 | 2290 ± 700 | 0.000496 ± 0.0001 | 0.00224 ± 0.0007 | 0.00203 ± 0.0003 | 4.44e-05 ± 1.1e-05
U46G A64G | 0.0154 ± 0.0048 | – | 4300 ± 1900 | 0.00216 ± 0.00079 | 0.00387 ± 0.001 | 0.0119 ± 0.0016 | 0.000157 ± 2.3e-05
A15G G37A | 0.00317 ± 0.0014 | 0.000154 ± 2.7e-05 | – | 0.000515 ± 7.3e-05 | 0.00123 ± 0.00023 | 0.00292 ± 0.00037 | 8.19e-05 ± 9.7e-06
C8U C61A | < 1e-05 | – | – | – | – | – | –
G37U C67G | < 1e-05 | – | – | – | – | < 1e-05 | –
U55G A64G | 0.0303 ± 0.0073 | 0.00204 ± 0.00033 | 1980 ± 600 | 0.0075 ± 0.00091 | 0.0149 ± 0.0036 | 0.0308 ± 0.0088 | 0.000723 ± 0.00013
C67U C68A | 4.58e-05 ± 9.2e-06 | – | – | 4.09e-05 ± 9.8e-06 | 5.66e-05 ± 7.5e-06 | 2.96e-05 ± 8.7e-06 | –
G38U C67U | < 1e-05 | – | – | – | – | – | –
A15G U30A | 0.018 ± 0.005 | 0.00255 ± 0.00036 | 923 ± 360 | 0.00983 ± 0.0012 | 0.0165 ± 0.0028 | 0.0115 ± 0.003 | 0.000649 ± 0.00011
A14U C58U | 0.000114 ± 1.5e-05 | – | 2600 ± 960 | – | 5.89e-05 ± 1.1e-05 | 9.01e-05 ± 1e-05 | –
G40C U45C | 0.000403 ± 4.9e-05 | – | 2310 ± 570 | 0.0001 ± 2.5e-05 | 0.000195 ± 3.4e-05 | 0.000344 ± 6.4e-05 | –
A12U U56G | 0.0516 ± 0.013 | 0.00468 ± 0.00073 | 1320 ± 390 | 0.0197 ± 0.0057 | – | 0.0461 ± 0.011 | 0.00172 ± 0.0002
U45G C67U | 0.00709 ± 0.0025 | 0.000462 ± 6.3e-05 | 2100 ± 1100 | 0.00181 ± 0.00028 | 0.00248 ± 0.00057 | 0.00733 ± 0.00094 | 0.000204 ± 3.5e-05

Variant | kcat (glucosamine-6-phosphate [1]) [s⁻¹] | self-cleavage kobs at 160 uM GlcN6P (glucosamine-6-phosphate [2]) [s⁻¹] | KM (glucosamine-6-phosphate [3]) [µM] | self-cleavage kobs at 640 uM GlcN6P (glucosamine-6-phosphate [4]) [s⁻¹] | self-cleavage kobs at 2500 uM GlcN6P (glucosamine-6-phosphate [5]) [s⁻¹] | self-cleavage kobs at 10000 uM GlcN6P (glucosamine-6-phosphate [6]) [s⁻¹] | self-cleavage kobs at 40 uM GlcN6P (glucosamine-6-phosphate [7]) [s⁻¹]
A14G | 0.0996 ± 0.0091 | 0.00764 ± 0.00054 | 1720 ± 180 | 0.0249 ± 0.0012 | 0.0558 ± 0.0042 | 0.0902 ± 0.0048 | 0.00231 ± 4.7e-05
A14C U56C | 0.000932 ± 0.00029 | 3.09e-05 ± 1.5e-05 | 4280 ± 2000 | 0.00014 ± 1.8e-05 | 0.000275 ± 4.5e-05 | 0.000754 ± 0.00012 | –
A15C A52G | 0.000755 ± 0.00022 | – | 7750 ± 3200 | 6.9e-05 ± 1.1e-05 | 0.000164 ± 2e-05 | 0.000449 ± 5.5e-05 | –
G13U A15C | 0.000268 ± 2.8e-05 | – | 2790 ± 550 | 4.71e-05 ± 7.8e-06 | 0.000142 ± 1.9e-05 | 0.000202 ± 2.4e-05 | –
A15G A52U | 0.000384 ± 8.3e-05 | – | 5400 ± 2000 | 3.21e-05 ± 7.2e-06 | 0.000147 ± 1.6e-05 | 0.00024 ± 2.3e-05 | –
A15G A52G | 0.00182 ± 0.00044 | 8.59e-05 ± 2.3e-05 | 3750 ± 1400 | 0.000293 ± 3.7e-05 | 0.000596 ± 8.6e-05 | 0.0015 ± 0.00019 | –
G41U U54C | 0.00115 ± 0.00032 | 0.000197 ± 4.5e-05 | – | 0.000389 ± 0.0001 | 0.00118 ± 0.00025 | 0.00117 ± 0.00018 | 0.000109 ± 1.9e-05
A39U A53G C67G | 0.00494 ± 0.00087 | – | 963 ± 280 | 0.00186 ± 0.00023 | 0.00346 ± 0.00056 | 0.00612 ± 0.0016 | 0.000219 ± 3.9e-05
A14U C68A | 2.98e-05 ± 1e-05 | – | – | – | 3.98e-05 ± 1.4e-05 | – | –
A15U U49A C67A | 2.42e-05 ± 8.1e-06 | – | – | – | – | – | –
A39G A42C | 3.82e-05 ± 3.7e-06 | – | – | – | 3e-05 ± 1.4e-05 | 3.4e-05 ± 8e-06 | –
A52C U57G | 9.64e-05 ± 1.4e-05 | < 1e-05 | 2300 ± 960 | – | 5.77e-05 ± 1.5e-05 | 7.59e-05 ± 1.6e-05 | –
U31G A36U | < 1e-05 | – | – | < 1e-05 | – | < 1e-05 | –
C61A U65G C67U | 2.68e-05 ± 7.3e-06 | – | – | – | – | – | –
G13A A39C | 0.000118 ± 1.9e-05 | – | 3740 ± 1200 | – | 4.55e-05 ± 7.4e-06 | 8.77e-05 ± 1.6e-05 | –
C16G G29A | 0.00419 ± 0.00058 | 0.000295 ± 5.2e-05 | 1940 ± 370 | 0.00103 ± 0.00015 | 0.00212 ± 0.00039 | 0.00387 ± 0.00066 | 9.85e-05 ± 1.6e-05

Reference: the supplement of paper PMC7125110
